Sequences and labels used below:
B1: chymase C22S/L99R/F173L/K192R/Y215H/R217T/S218V/A226R (enzyme)
chain: IIGGTESKPHSRPYMAYLEIVTSNGPSKFCGGFLIRRNFVLTAAHCAGRSITVTLGAHNITEEEDTWQKLEVIKQFRHPKYNTSTRHHDIMLLKLKEKASLTLAVGTLPFPSQFNFVPPGRMCRVAGWGRTGVLKPGSDTLQEVKLRLMDPQACSHLRDFDHNLQLCVGNPRKTKSAFRGDSGGPLLCAGVAQGIVSHGTVDAKPPRVFTRISHYRPWINQILQAN
B2: chymase C22S/L99Y/F173L/K192R/Y215H/R217T/S218V/A226R (enzyme)
chain: IIGGTESKPHSRPYMAYLEIVTSNGPSKFCGGFLIRRNFVLTAAHCAGRSITVTLGAHNITEEEDTWQKLEVIKQFRHPKYNTSTYHHDIMLLKLKEKASLTLAVGTLPFPSQFNFVPPGRMCRVAGWGRTGVLKPGSDTLQEVKLRLMDPQACSHLRDFDHNLQLCVGNPRKTKSAFRGDSGGPLLCAGVAQGIVSHGTVDAKPPRVFTRISHYRPWINQILQAN
B3: chymase C22S/L99R/F173Y/K192R/S218L/A226R (enzyme)
chain: IIGGTESKPHSRPYMAYLEIVTSNGPSKFCGGFLIRRNFVLTAAHCAGRSITVTLGAHNITEEEDTWQKLEVIKQFRHPKYNTSTRHHDIMLLKLKEKASLTLAVGTLPFPSQFNFVPPGRMCRVAGWGRTGVLKPGSDTLQEVKLRLMDPQACSHYRDFDHNLQLCVGNPRKTKSAFRGDSGGPLLCAGVAQGIVSYGRLDAKPPRVFTRISHYRPWINQILQAN
B4: chymase C22S/P38Q/K40M/F41R/L99H/V138I/D175Q/A190S/V213A/S218V/A226R (enzyme)
chain: IIGGTESKPHSRPYMAYLEIVTSNGQSMRCGGFLIRRNFVLTAAHCAGRSITVTLGAHNITEEEDTWQKLEVIKQFRHPKYNTSTHHHDIMLLKLKEKASLTLAVGTLPFPSQFNFVPPGRMCRIAGWGRTGVLKPGSDTLQEVKLRLMDPQACSHFRQFDHNLQLCVGNPRKTKSSFKGDSGGPLLCAGVAQGIASYGRVDAKPPRVFTRISHYRPWINQILQAN
B5: chymase C22S/P38Q/K40Q/F41R/L99H/V138I/F173Y/D175S/A190S/V213A/S218V/A226R (enzyme)
chain: IIGGTESKPHSRPYMAYLEIVTSNGQSQRCGGFLIRRNFVLTAAHCAGRSITVTLGAHNITEEEDTWQKLEVIKQFRHPKYNTSTHHHDIMLLKLKEKASLTLAVGTLPFPSQFNFVPPGRMCRIAGWGRTGVLKPGSDTLQEVKLRLMDPQACSHYRSFDHNLQLCVGNPRKTKSSFKGDSGGPLLCAGVAQGIASYGRVDAKPPRVFTRISHYRPWINQILQAN
B6: chymase C22S/P38Q/K40M/F41R/V138I/F173Y/D175Y/A190S/V213A/S218I/A226R (enzyme)
chain: IIGGTESKPHSRPYMAYLEIVTSNGQSMRCGGFLIRRNFVLTAAHCAGRSITVTLGAHNITEEEDTWQKLEVIKQFRHPKYNTSTLHHDIMLLKLKEKASLTLAVGTLPFPSQFNFVPPGRMCRIAGWGRTGVLKPGSDTLQEVKLRLMDPQACSHYRYFDHNLQLCVGNPRKTKSSFKGDSGGPLLCAGVAQGIASYGRIDAKPPRVFTRISHYRPWINQILQAN
B7: chymase C22S/P38Q/K40Q/F41R/V138I/F173Y/D175N/A190S/V213A/S218V/A226R (enzyme)
chain: IIGGTESKPHSRPYMAYLEIVTSNGQSQRCGGFLIRRNFVLTAAHCAGRSITVTLGAHNITEEEDTWQKLEVIKQFRHPKYNTSTLHHDIMLLKLKEKASLTLAVGTLPFPSQFNFVPPGRMCRIAGWGRTGVLKPGSDTLQEVKLRLMDPQACSHYRNFDHNLQLCVGNPRKTKSSFKGDSGGPLLCAGVAQGIASYGRVDAKPPRVFTRISHYRPWINQILQAN
B8: chymase C22S/P38Q/K40M/F41R/L99N/V138I/F173Y/D175F/A190S/V213A/S218V/A226R (enzyme)
chain: IIGGTESKPHSRPYMAYLEIVTSNGQSMRCGGFLIRRNFVLTAAHCAGRSITVTLGAHNITEEEDTWQKLEVIKQFRHPKYNTSTNHHDIMLLKLKEKASLTLAVGTLPFPSQFNFVPPGRMCRIAGWGRTGVLKPGSDTLQEVKLRLMDPQACSHYRFFDHNLQLCVGNPRKTKSSFKGDSGGPLLCAGVAQGIASYGRVDAKPPRVFTRISHYRPWINQILQAN
B9: chymase C22S/P38Q/K40M/F41R/V138I/F173S/D175Y/A190S/V213A/S218V/A226R (enzyme)
chain: IIGGTESKPHSRPYMAYLEIVTSNGQSMRCGGFLIRRNFVLTAAHCAGRSITVTLGAHNITEEEDTWQKLEVIKQFRHPKYNTSTLHHDIMLLKLKEKASLTLAVGTLPFPSQFNFVPPGRMCRIAGWGRTGVLKPGSDTLQEVKLRLMDPQACSHSRYFDHNLQLCVGNPRKTKSSFKGDSGGPLLCAGVAQGIASYGRVDAKPPRVFTRISHYRPWINQILQAN
B10: chymase C22S/P38Q/K40I/F41R/L99N/V138I/D175T/A190S/V213A/S218V/A226R (enzyme)
chain: IIGGTESKPHSRPYMAYLEIVTSNGQSIRCGGFLIRRNFVLTAAHCAGRSITVTLGAHNITEEEDTWQKLEVIKQFRHPKYNTSTNHHDIMLLKLKEKASLTLAVGTLPFPSQFNFVPPGRMCRIAGWGRTGVLKPGSDTLQEVKLRLMDPQACSHFRTFDHNLQLCVGNPRKTKSSFKGDSGGPLLCAGVAQGIASYGRVDAKPPRVFTRISHYRPWINQILQAN
B11: chymase C22S/P38Q/K40L/F41R/V138I/F173Y/D175H/A190S/V213A/S218T/A226R (enzyme)
chain: IIGGTESKPHSRPYMAYLEIVTSNGQSLRCGGFLIRRNFVLTAAHCAGRSITVTLGAHNITEEEDTWQKLEVIKQFRHPKYNTSTLHHDIMLLKLKEKASLTLAVGTLPFPSQFNFVPPGRMCRIAGWGRTGVLKPGSDTLQEVKLRLMDPQACSHYRHFDHNLQLCVGNPRKTKSSFKGDSGGPLLCAGVAQGIASYGRTDAKPPRVFTRISHYRPWINQILQAN
B12: chymase C22S/P38Q/K40A/F41R/L99H/V138I/F173Y/D175N/A190S/V213A/S218L/A226R (enzyme)
chain: IIGGTESKPHSRPYMAYLEIVTSNGQSARCGGFLIRRNFVLTAAHCAGRSITVTLGAHNITEEEDTWQKLEVIKQFRHPKYNTSTHHHDIMLLKLKEKASLTLAVGTLPFPSQFNFVPPGRMCRIAGWGRTGVLKPGSDTLQEVKLRLMDPQACSHYRNFDHNLQLCVGNPRKTKSSFKGDSGGPLLCAGVAQGIASYGRLDAKPPRVFTRISHYRPWINQILQAN
B13: chymase C22S/K40L/F41A/K192R/A226R (enzyme)
chain: IIGGTESKPHSRPYMAYLEIVTSNGPSLACGGFLIRRNFVLTAAHCAGRSITVTLGAHNITEEEDTWQKLEVIKQFRHPKYNTSTLHHDIMLLKLKEKASLTLAVGTLPFPSQFNFVPPGRMCRVAGWGRTGVLKPGSDTLQEVKLRLMDPQACSHFRDFDHNLQLCVGNPRKTKSAFRGDSGGPLLCAGVAQGIVSYGRSDAKPPRVFTRISHYRPWINQILQAN
B14: chymase C22S/P38Q/K40L/F41R/L99Y/V138I/F173Y/D175N/A190S/V213A/S218V/A226R (enzyme)
chain: IIGGTESKPHSRPYMAYLEIVTSNGQSLRCGGFLIRRNFVLTAAHCAGRSITVTLGAHNITEEEDTWQKLEVIKQFRHPKYNTSTYHHDIMLLKLKEKASLTLAVGTLPFPSQFNFVPPGRMCRIAGWGRTGVLKPGSDTLQEVKLRLMDPQACSHYRNFDHNLQLCVGNPRKTKSSFKGDSGGPLLCAGVAQGIASYGRVDAKPPRVFTRISHYRPWINQILQAN
B15: chymase C22S/P38Q/K40A/F41K/L99N/V138I/D175H/A190S/V213A/S218V/A226R (enzyme)
chain: IIGGTESKPHSRPYMAYLEIVTSNGQSAKCGGFLIRRNFVLTAAHCAGRSITVTLGAHNITEEEDTWQKLEVIKQFRHPKYNTSTNHHDIMLLKLKEKASLTLAVGTLPFPSQFNFVPPGRMCRIAGWGRTGVLKPGSDTLQEVKLRLMDPQACSHFRHFDHNLQLCVGNPRKTKSSFKGDSGGPLLCAGVAQGIASYGRVDAKPPRVFTRISHYRPWINQILQAN
B16: chymase C22S/P38Q/K40M/F41R/L99N/V138I/F173Y/D175W/A190S/V213A/S218T/A226R (enzyme)
chain: IIGGTESKPHSRPYMAYLEIVTSNGQSMRCGGFLIRRNFVLTAAHCAGRSITVTLGAHNITEEEDTWQKLEVIKQFRHPKYNTSTNHHDIMLLKLKEKASLTLAVGTLPFPSQFNFVPPGRMCRIAGWGRTGVLKPGSDTLQEVKLRLMDPQACSHYRWFDHNLQLCVGNPRKTKSSFKGDSGGPLLCAGVAQGIASYGRTDAKPPRVFTRISHYRPWINQILQAN
B17: chymase C22S/P38Q/K40L/F41R/V138I/F173Y/D175R/A190S/V213A/S218T/A226R (enzyme)
chain: IIGGTESKPHSRPYMAYLEIVTSNGQSLRCGGFLIRRNFVLTAAHCAGRSITVTLGAHNITEEEDTWQKLEVIKQFRHPKYNTSTLHHDIMLLKLKEKASLTLAVGTLPFPSQFNFVPPGRMCRIAGWGRTGVLKPGSDTLQEVKLRLMDPQACSHYRRFDHNLQLCVGNPRKTKSSFKGDSGGPLLCAGVAQGIASYGRTDAKPPRVFTRISHYRPWINQILQAN
B18: chymase C22S/P38Q/K40A/F41R/L99H/V138I/D175N/A190S/V213A/S218I/A226R (enzyme)
chain: IIGGTESKPHSRPYMAYLEIVTSNGQSARCGGFLIRRNFVLTAAHCAGRSITVTLGAHNITEEEDTWQKLEVIKQFRHPKYNTSTHHHDIMLLKLKEKASLTLAVGTLPFPSQFNFVPPGRMCRIAGWGRTGVLKPGSDTLQEVKLRLMDPQACSHFRNFDHNLQLCVGNPRKTKSSFKGDSGGPLLCAGVAQGIASYGRIDAKPPRVFTRISHYRPWINQILQAN
B19: chymase C22S/P38Q/K40M/F41K/L99W/V138I/F173M/A190S/V213A/S218N/A226R (enzyme)
chain: IIGGTESKPHSRPYMAYLEIVTSNGQSMKCGGFLIRRNFVLTAAHCAGRSITVTLGAHNITEEEDTWQKLEVIKQFRHPKYNTSTWHHDIMLLKLKEKASLTLAVGTLPFPSQFNFVPPGRMCRIAGWGRTGVLKPGSDTLQEVKLRLMDPQACSHMRDFDHNLQLCVGNPRKTKSSFKGDSGGPLLCAGVAQGIASYGRNDAKPPRVFTRISHYRPWINQILQAN
B20: chymase C22S/P38Q/K40M/F41R/V138I/F173L/D175R/A190S/V213A/S218T/A226R (enzyme)
chain: IIGGTESKPHSRPYMAYLEIVTSNGQSMRCGGFLIRRNFVLTAAHCAGRSITVTLGAHNITEEEDTWQKLEVIKQFRHPKYNTSTLHHDIMLLKLKEKASLTLAVGTLPFPSQFNFVPPGRMCRIAGWGRTGVLKPGSDTLQEVKLRLMDPQACSHLRRFDHNLQLCVGNPRKTKSSFKGDSGGPLLCAGVAQGIASYGRTDAKPPRVFTRISHYRPWINQILQAN
B21: chymase C22S/P38Q/K40M/F41R/L99S/V138I/F173Y/D175N/A190S/V213A/S218V/A226R (enzyme)
chain: IIGGTESKPHSRPYMAYLEIVTSNGQSMRCGGFLIRRNFVLTAAHCAGRSITVTLGAHNITEEEDTWQKLEVIKQFRHPKYNTSTSHHDIMLLKLKEKASLTLAVGTLPFPSQFNFVPPGRMCRIAGWGRTGVLKPGSDTLQEVKLRLMDPQACSHYRNFDHNLQLCVGNPRKTKSSFKGDSGGPLLCAGVAQGIASYGRVDAKPPRVFTRISHYRPWINQILQAN

The values that follow come from patent US20240117334A1, “FACTOR B PROTEASES” (Vertex Pharmaceuticals Incorporated, priority 2021, published 2024).

The target of this test is Human Factor B (human) (UniProt P00751). Description: cell-based or functional assay.
Human Factor B (human), sequence (P00751 26-764 limits assumed): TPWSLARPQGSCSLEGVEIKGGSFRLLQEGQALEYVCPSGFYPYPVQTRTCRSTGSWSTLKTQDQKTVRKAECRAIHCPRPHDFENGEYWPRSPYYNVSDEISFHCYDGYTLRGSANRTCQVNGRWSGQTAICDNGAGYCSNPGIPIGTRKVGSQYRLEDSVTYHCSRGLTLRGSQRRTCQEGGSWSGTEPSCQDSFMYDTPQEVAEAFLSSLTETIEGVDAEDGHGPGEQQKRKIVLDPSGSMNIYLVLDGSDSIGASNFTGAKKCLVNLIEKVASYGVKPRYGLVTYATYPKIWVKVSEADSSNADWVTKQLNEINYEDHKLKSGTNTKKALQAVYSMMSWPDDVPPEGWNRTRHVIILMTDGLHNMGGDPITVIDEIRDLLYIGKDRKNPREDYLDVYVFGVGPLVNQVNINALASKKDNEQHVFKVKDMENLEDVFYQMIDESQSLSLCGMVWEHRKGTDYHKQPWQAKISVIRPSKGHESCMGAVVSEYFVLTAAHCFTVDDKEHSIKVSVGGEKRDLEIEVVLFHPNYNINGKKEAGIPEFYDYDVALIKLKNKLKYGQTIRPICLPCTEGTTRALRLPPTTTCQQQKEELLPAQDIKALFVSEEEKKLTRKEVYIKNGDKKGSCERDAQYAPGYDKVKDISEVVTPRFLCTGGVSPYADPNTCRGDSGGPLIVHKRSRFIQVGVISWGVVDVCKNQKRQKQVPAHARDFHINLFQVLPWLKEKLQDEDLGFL
Molecule B1 yielded a fB Cleavage EC50 of 7770 nM; a fB Cleavage, 64% A2M-depl plasma EC50 of 2290 nM; a fB Cleavage, 64% plasma EC50 of 4380 nM; a fB Cleavage, 80% plasma EC50 of 7590 nM.
B2 displayed a fB Cleavage, 64% A2M-depl plasma EC50 of 4580 nM and a fB Cleavage, 64% plasma EC50 of 12400 nM.
Take B3: the fB Cleavage EC50 is 555 nM.
B4 had a fB Cleavage EC50 of 301 nM.
The molecule B5 returned a fB Cleavage EC50 of 150 nM.
The same measure, in the same setting: the value for B6 was 465 nM; that for B7 was 100 nM.
On the same count and under the same terms, in the case of B8 it was 193 nM.
As for B9, the fB Cleavage EC50 came to 287 nM.
The same measure, in the same setting: the value for B10 was 203 nM; that for B11 was 121 nM; that for B12 was 139 nM.
On to B13, for which the fB Cleavage EC50 is 7390 nM.
The molecule B14 had a fB Cleavage EC50 of 57 nM.
For the molecule B15, the fB Cleavage EC50 stood at 121 nM.
Consider B16, for which the fB Cleavage EC50 is 500 nM.
Consider B17, for which the fB Cleavage EC50 stood at 223 nM.
The molecule B18 yielded a fB Cleavage EC50 of 170 nM.
B19 returned a fB Cleavage EC50 of 956 nM.
On the same count and under the same terms, in the case of B20 it was 51 nM; in that of B21, 472 nM.
